The values that follow come from the nanobody polyreactivity screen of Harvey et al. (2022).

A short description of this data set: yeast display, Sf9 membrane polyspecificity reagent, FACS + sequencing; frameworks hold sequencing errors. A digest of the protocol:
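After 36–48 hours of galactose induction, yeast (Saccharomyces cerevisiae BJ5465) displaying a synthetic nanobody library were stained at 4 °C for 1 hour with 10% biotinylated, detergent-solubilized Sf9 membrane reagent. Streptavidin microbeads enriched the stained cells before FACS sorting into low and high (top ~1%) gates on anti-HA and streptavidin fluorescence. Each clone's polyreactivity label reflects its gate of origin.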
For “QVQLVESGGGLVQAGGSLRLSCAASGSIFYNYAMGWYRQAPGKERELVAAISQSGGSTRYADSVKGRFTISRDNAKNTVYVQMNSLKPEDTAVYYCAASRRKGQGSAGFGYWGQGTQVTVSS”, the “polyreactivity (PSR sort gate)” value is recorded as “high polyreactivity”.
Turning to “QVQLVESGGGLVQAGGSLRLSCAASGRIFRYNTIGWYRQAPGKERELVADITSSDSSTNYADSVKGRFTISRDTAKNTVYLQMNSLKPEDTAVYYCNAVIYFKFDWGQGTQVTVSS”, the “polyreactivity (PSR sort gate)” value is listed as “low polyreactivity”.
Consider “QVQLVESGGGLVQAGGSLRLSCAASGSIFPLYAMGWYRQAPGKERELVAGINGNDGSTYYADSVKGRFTISRDYEKNTVYLQRNRLKPEDTAVYYCAARGSTAHPHYPFNYWGQGTQVTVSS”, for which the “polyreactivity (PSR sort gate)” value was “low polyreactivity”.
For the sequence “QVQLVESGGGLVQAGGSLRLSCAASGRIFSPSDMGWYRQAPGKERELVAAIRSDGGRTHYADSVKGRFTISRDNAKNTVYLQMNTLKPEDTAVYYCARDNGRTITTTDTYDYWRQGTQVTVSS”, the “polyreactivity (PSR sort gate)” value is “low polyreactivity”.
As for “QDKLVESGGGLVQAGGSLRLSCAASGSILGGYAMGWNRPAPGKAREFVAAISRRGASTFYADSVKGRFTISRDNAKNTVYLQMNCLKPEDTAVYYCNARAYGRIDGHSATFGYWGQGTQVTVSS”, the “polyreactivity (PSR sort gate)” value was “high polyreactivity”.
In the case of “QVQLVESGGGLVQAGGSLRLSCAASGTTFDVYAMGWYRQAPGKERELVAAISTRGTRTYYADSVKGRFTISRDNAKNTVYLQMNSLKPEETAVYYCAAYVYDGETVSRFDYWGQGTQVTVSS” it was “high polyreactivity”; in that of “QVQLVESGGGLVQAGGSLRLSCAASGSIFISYAMGWYRQAPGKESELVDAINYSGGSTYYADSVKGRFTISRDNAKNTVYLQMNSLKPEDTAVYYCAKRSTYRYYGYKLRDYWGQGTQVTVSS”, “low polyreactivity”.
In the case of “QVQLVESGGGLVQAGGSLRLSCAASGRTLYRYAMGWYRQAPGKERELVAVISWNAVGTYYADSVKGRFTISRDNAKNTVYLQMNSLKPEDTAVYYCAARKRVASQGYIRYNYWGQGTQVTVSS” it was “high polyreactivity”; in that of “QVQLVESGGGLVQAVGSLRLSCAASGSIFGAYAMGWYRQAPGKERELVAAITSGGSTNYADSVKGRFTISRDNAKNTVYLQMNSLKPEDTAVYYCAARRRYAKFRYDYWGQGTQVTVSS”, “high polyreactivity”; in that of “QVQLVESGGGLVQAGGSLRLSCAASGFTFFIYVMGWYRQAPGKEREYVAAISSSGDSTYYADSVKGRFTISRDNAKNTVYLQMNSLIPEDTAVYYCNAGDKVSSYWYDYWGQGTQVTVSS”, “low polyreactivity”.
With “QVQLVESGGGLVQAGGSLRLSCAASALTFHFNAMGWYRQAPGKERELVASITSSGGSTYYADSVKGRFTISRDNAKNTVSLQMNSLKPEDTAVYYCNAEGSSVLTGYWGYPPYWDTYDYSGQGTQVTVSS”, the “polyreactivity (PSR sort gate)” value was “low polyreactivity”.
With “QVQLVESGGGLVQAGGSLRLSCAASGSTFYLYAKGWYRQAPGKEREMVAAITGSGSRTYYADSVKGRFTISRDNAKNTVYLQMHSLNPEDTAVYYCAAKYGWQGGRGRDYWGQGTQVTVSS”, the “polyreactivity (PSR sort gate)” value was “high polyreactivity”.
The same measure for “QVQLQESGGGLVQVGGSQRLSCAASGNIFYNYAMGWYRHAHGKEREFDATINHGTSINYADSVKGRFTISRDNAKNTVYLQMNSLKPEDTAVYYCAADLSWTDNLFYWGQGTQVTVSS”: “low polyreactivity”; for “QVQLVESGGGLVQAGGSLRLSCAASGNTFIRNVMGWYRQAPGKERELVAGSRTGGSTFYADSVKGRFTISRDNAKNTVYLQMNSLKPEDTAVYYCNADVGDEGNLPYVIRPMDYWGQGTQVTVSS”: “low polyreactivity”; for “QVQLVESGACLVQAGGSLRLSCAASGSIFGFYAMGWYRQAPGQERELVAGISYGDSSTYYADSVKGRFTISRDNAKNTVYLQMNSLKPEDTAVYYCAAGHRQKYNWGRYDYWGQGTQVTVSS”: “low polyreactivity”.
For “QVQLVESGGGLVQAGGSLRLSCAASGFIFYVYAMGWYRQAPGKERELVAAISADGGITYYADSVKGRFTISRDNAKNTVYLQMNSLKPEDTAVYYCNTLGDQDAYAGFRLDYWVQGTQVTVSS”, the “polyreactivity (PSR sort gate)” value was “low polyreactivity”.
With “QVQLVESGGGLVQAGGSGRLSCAASGSILPSYAMGWYRQAPGKERELVAAISRRGGSTYYADSVKGRFSISRDNAKNTVYLQMNSLKPEDTAVYYCAAGSYSGYDYWGQGTQVTVSS”, the “polyreactivity (PSR sort gate)” value is recorded as “low polyreactivity”.
Take “QVQLVESGGGLVQAGGSLRLSCAASGRIFGSYTMGWYRQAPGKERELVAAISFSGARTRYADSVKGRFTISRDNAKNTVYLQMNSLKPEDTAVYYCAARFTGGKYDYWGQGTQVTVSS”: the “polyreactivity (PSR sort gate)” value is listed as “high polyreactivity”.
As to “QVQLVESGGGLVQAGGSLRISCAASGFSFRYYAMGWYRQAPGKERELVAAISGSGGSTYYADSVKGRFTISRDNAKNTVYLQMNSLKPEDTAVYYCARYYTYREYDYWGQATQVTVSS”, the “polyreactivity (PSR sort gate)” value is on record as “high polyreactivity”.
As for “QVQLVESGGGLVQAGGSLRLSCAASGRIFKYYAMGGYRQAPGKERELVAAISGSGGSTFYADSVKGRFTISRDNAKNTVYLQMNSLKPEDSALYYCNADEVVWGYNYWGQVTQVTVSS”, the “polyreactivity (PSR sort gate)” value is recorded as “low polyreactivity”.
Take “QVQHVESGGGLVQAGGSLRLICAASGIIFDYNAMGWYRQAPGKERELVATNNDSGGSTSYAYSVKGRFTISRDKAKNTVYLQMNCLKPDDTAVYYCAVLPVYWYWRNYVYLSGYDYWGQGSQVTVSS”: the “polyreactivity (PSR sort gate)” value is reported as “low polyreactivity”.
Consider “QVQLVESGGGLVQAGGSLRLSCAASGSIFPKYAMGWYRQAPGKEREFVAAISRRGGSTYYAYSVKGRFTISRDNAKNTVYLQMNSLKPEDTAVYYCSVKIPTYPIFGRYGYWGQGTQVTVSS”, for which the “polyreactivity (PSR sort gate)” value is “high polyreactivity”.
For “QVQLVESGGGLVQAGGSLRLSCAASGLIFKYNAMGWYRQAPGKERELVAAISTSGGSTYYADSVKGRFTISRDNAKNTVYLQMNSLKPEDTAVYYCNAVAGRPFRYYYWGQGTQVTVSS”, the “polyreactivity (PSR sort gate)” value is listed as “high polyreactivity”.
Regarding “QVQLVESGGGLVQAGGSLRLSCAASGIIFTYNAMGWYRQPPGKERELVAAISASGSSTYYADSVKGRFTISLDNAKNTVYLQMNSLKPEDTAVYYCAARTRRGLARYDYWGQGTQGTVSS”, the “polyreactivity (PSR sort gate)” value is “high polyreactivity”.
Regarding “QVQLVESGGGLVQAGGSLRLSCAASGRIFGSYAMGWYRQAPGKERELVASIRSRGGRTYYADSVKGRFTISRDNAKNTVYLQMNSLKPEDTAVYYCAADVGVYYYSFYYWGQGTQVTVSS”, the “polyreactivity (PSR sort gate)” value is given as “high polyreactivity”.
For the sequence “QVQLVESGGGLVQAGGSLRLSCAASGRIFRYYAMGWYRQAPGKERELVATITSSGGSTFYADSVKGRFTISRDNAKNTVYLQMNSLKPEDTAVYYCAASRASRYFPYDYWGQGTQVTVSS”, the “polyreactivity (PSR sort gate)” value is on record as “high polyreactivity”.
In the case of “QVQLVESGGGLVQAGGSLRLSCAPSGSTFDRNDMGWYRQAPGKERELVAAISRVSSTNYADSVKVRFTISRDNAKNTVYLQMNSLKPADTAVYYCAADRAGSIMNYWGQGTQETVSS” it was “low polyreactivity”.
Regarding “QVQLVESGGGLVQAGGSLRLSCAASGSIFTGNAMGWYRQAPGKERELVASSTTTTDSTYYADSVKGRFTISRDNAKNTVYLQMNSLKPEDTAVYYCAAEYAVAWKYGLYFYFHFDYWGQGTQVTVSS”, the “polyreactivity (PSR sort gate)” value is “low polyreactivity”.
As to “QVQLVESGGVLVQAGGSLRLSSAASGGTFWYYAMGMYRQEPGKERELVASISRGGSTNYADSVKGRFTISRDKAKHTVDLQMNRLKPEDTAVYYCIAGLRVGPRRYVDYEYDYWGQGSQVTVSS”, the “polyreactivity (PSR sort gate)” value is given as “low polyreactivity”.
On to “QVQLVESGGGLVQAGGSLRLSCAASGRPSLLMLWDGIDRRLGKKGSWLPLLTLVTPTTYADSVKGRFTISRDNAKNTVYLQMNSLKPEDTAVYYCNADFRPLDHYVNWYYYWGQGTQVTVSS”, for which the “polyreactivity (PSR sort gate)” value is “low polyreactivity”.
Regarding “QVQLVESGGGLDQAVGSLPLSCAASGRTFYLNTRGWYREAPWKEREFVAAISATAGRTYYADSVKGRFTISRDNAKNTVYLQMYSLKPEDTAVYYCAAVPLRIRWPNSSPALDYWGQGTQVTVSS”, the “polyreactivity (PSR sort gate)” value is reported as “high polyreactivity”.
The same measure for “QVQLVESGGGLDQAGGSLRLSCAASGRTFTEYAMGWYRQAPGKERELVARISIGDSTYYADSVKGRFTISRDNAKNTDYLQMNSLKPEDTAVYYCNAEYSRSYRYDEGYWGQGTQVTVSS”: “low polyreactivity”; for “QVQLVESGGGLVQAGGSLRLSCAASGLTFHYYAMGWYRQAPGKERELVAVISSGGSTYYADSVKGRFTISRDNAKNTVYLQMNSLKPEDTAVYYCAKLSLSWDGYYQYDYRGQGTQVTVSS”: “low polyreactivity”; for “QVHLVESGGGLVQAGGSLRLSCAASGLIFGGYAMGWDRQAPGKERELVAAISSNSGSTYYADSVKGRFTISRDNAKNTVYLQMNSLKPEDTAVYYCIRYFYQGFDYWGQGTQVTVSS”: “high polyreactivity”.
Regarding “QVQLVESGGGLVQAGGSLRLSCAASGSIFGQNAMGWYRQAPGKERELVAAITSGAGITYYADSVKGRFTISRDNAKNTVYLQMNSLKPEDPAVYYCIAVPSWSPSPLFDYWGQGTQVTVSS”, the “polyreactivity (PSR sort gate)” value is “low polyreactivity”.
In the case of “QVQLVESVGGLVQAGGSLRLSCAASGSIFGDNAMGWYRQAPGKERELVAAITWRGGSTYYADSVKGRFTISRDNAKNTVYLQMNSLKPEDTAVYYCATDSRSHRDYWGQGTQVTVSS”, the “polyreactivity (PSR sort gate)” value was “low polyreactivity”.
In the case of “QVQLVESGGGLVQAGGSLRLSCAASGSIFRSYAMGWYRQAPGKERELVAGITSSGGSTYADSVKGRFTISRDNAKNTVYLQMNSLKPEDTAVYFCAKPGFEWLLTRLFSVSEYDYWGQGTQVTVSS”, the “polyreactivity (PSR sort gate)” value is on record as “low polyreactivity”.
For the sequence “QVQLEESGGGLVQAGGSLRLSCAASGSTFRDNALGWYRQAPGKETELVAGITRGGITNYADSVKGRFTISRDNAKNTVYLQMNSLIPEDTAVYYCAAEVTGTYYDYDYWGQGTQVTVSS”, the “polyreactivity (PSR sort gate)” value is “low polyreactivity”.
In the case of “QVQLVESGVVLVQAGGSLRLSCAASGSTFVRYAMGWYRQAPGKERELVAANSRSGGRTYYADSVKGRFTISRDNAKHTVYLQMNSLKPEDTAVYYCYPYYIASTFDYWGQGTQVTVSS” it was “high polyreactivity”; in that of “QVQLVESGGGLVQAGGSLRLSCAASGRTFPIYAMGWYRQAPGKERELVAAITYSGGSTYYADSVKGRFTISRDNAKNTVYLQMNSLKPEDTAVSYCAVDGTKPYWHQRYDYWGQGTLVTVSS”, “low polyreactivity”.
